{
  "source": "patent US20220064329A1",
  "about": "(Novo Nordisk, published 2022)",
  "key": {"FVII(a) WT": {"target": "T1, FVII(a) WT (human, UniProt P08709 61-466)", "T1 construct": "also called wild type human FVII(a)", "T1 sequence": "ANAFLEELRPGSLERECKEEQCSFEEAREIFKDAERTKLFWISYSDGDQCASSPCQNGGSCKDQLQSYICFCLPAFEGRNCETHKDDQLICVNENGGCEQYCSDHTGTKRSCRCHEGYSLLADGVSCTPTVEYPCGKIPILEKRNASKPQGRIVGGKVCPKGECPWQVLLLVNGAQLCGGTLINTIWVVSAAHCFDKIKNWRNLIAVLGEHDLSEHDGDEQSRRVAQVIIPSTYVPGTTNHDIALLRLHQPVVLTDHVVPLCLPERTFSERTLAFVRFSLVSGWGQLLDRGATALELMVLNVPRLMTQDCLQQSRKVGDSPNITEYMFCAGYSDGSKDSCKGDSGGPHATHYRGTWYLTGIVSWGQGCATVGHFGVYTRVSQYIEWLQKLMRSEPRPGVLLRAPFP", "assay": "SPR, Biacore T200, 25 C; FVII(a) captured on anti-Gla Ab 4F6, mAb0842(OA) injected", "experimental": "(§1) The running buffer was prepared by diluting 10-fold the 10×HBS-P buffer (supplied by GE Healthcare) and supplemented with 1 mg/ml BSA and 5 mM CaCl2 to give 10 mM HEPES, 150 mM NaCl, 0.05% v/v Polysorbate 20, pH 7.4, 5 mM CaCl2, 1 mg/ml bovine serum albumin (BSA). […] Regeneration of the chip was achieved using 10 mM HEPES, 150 mM NaCl, 20 mM EDTA, 0.05 v/v Polysorbate 20, pH 7.4. Binding data were analysed according to a 1:1 Kinetic model and steady state analysis using BiaEvaluation 4.1 supplied by the manufacturer (Biacore AB, Uppsala, Sweden). Wherever possible, ka, kd and KD values from 1:1 kinetic fitting model are reported. […] An amino acid residue is considered a hot-spot residue if substitution of that amino acid residue with alanine results in an affinity reduction of ten (10) fold or more relative to the wild type."}, "FVII(a) variant H115A [1]": {"target": "T2, FVII(a) variant H115A (human, UniProt P08709 61-466)", "T2 construct": "hFVII alanine variant in cell culture supernatant", "T2 sequence": "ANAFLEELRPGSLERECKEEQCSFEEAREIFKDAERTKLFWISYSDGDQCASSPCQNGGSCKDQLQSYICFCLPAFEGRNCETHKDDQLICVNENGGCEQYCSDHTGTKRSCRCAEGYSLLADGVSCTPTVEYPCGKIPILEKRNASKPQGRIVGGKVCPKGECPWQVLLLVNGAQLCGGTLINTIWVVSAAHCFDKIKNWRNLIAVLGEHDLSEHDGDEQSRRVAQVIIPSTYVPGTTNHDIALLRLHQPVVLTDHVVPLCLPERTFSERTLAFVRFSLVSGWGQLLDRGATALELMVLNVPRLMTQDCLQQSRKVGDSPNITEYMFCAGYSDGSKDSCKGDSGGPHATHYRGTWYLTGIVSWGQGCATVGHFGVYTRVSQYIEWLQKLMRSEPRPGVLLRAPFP", "assay": "SPR, Biacore T200, 25 C; FVII(a) variant captured on anti-Gla Ab 4F6, mAb0842(OA) injected", "experimental": "as §1"}, "FVII(a) variant V131A": {"target": "T3, FVII(a) variant V131A (human, UniProt P08709 61-466)", "T3 construct": "hFVII alanine variant in cell culture supernatant", "T3 sequence": "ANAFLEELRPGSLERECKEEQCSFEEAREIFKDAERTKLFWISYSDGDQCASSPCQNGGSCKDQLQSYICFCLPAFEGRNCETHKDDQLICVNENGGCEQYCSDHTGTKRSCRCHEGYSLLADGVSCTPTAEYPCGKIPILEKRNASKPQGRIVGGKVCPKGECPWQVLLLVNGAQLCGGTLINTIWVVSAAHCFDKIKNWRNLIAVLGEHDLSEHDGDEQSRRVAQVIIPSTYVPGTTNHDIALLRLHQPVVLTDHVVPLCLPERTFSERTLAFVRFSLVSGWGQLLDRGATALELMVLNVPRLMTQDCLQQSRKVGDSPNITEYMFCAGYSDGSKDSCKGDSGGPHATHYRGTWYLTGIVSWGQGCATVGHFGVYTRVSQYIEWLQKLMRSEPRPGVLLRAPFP", "assay": "SPR, ratio of KD to KD of WT"}, "FVII(a) variant R113A": {"target": "T4, FVII(a) variant R113A (human, UniProt P08709 61-466)", "T4 construct": "hFVII alanine variant in cell culture supernatant", "T4 sequence": "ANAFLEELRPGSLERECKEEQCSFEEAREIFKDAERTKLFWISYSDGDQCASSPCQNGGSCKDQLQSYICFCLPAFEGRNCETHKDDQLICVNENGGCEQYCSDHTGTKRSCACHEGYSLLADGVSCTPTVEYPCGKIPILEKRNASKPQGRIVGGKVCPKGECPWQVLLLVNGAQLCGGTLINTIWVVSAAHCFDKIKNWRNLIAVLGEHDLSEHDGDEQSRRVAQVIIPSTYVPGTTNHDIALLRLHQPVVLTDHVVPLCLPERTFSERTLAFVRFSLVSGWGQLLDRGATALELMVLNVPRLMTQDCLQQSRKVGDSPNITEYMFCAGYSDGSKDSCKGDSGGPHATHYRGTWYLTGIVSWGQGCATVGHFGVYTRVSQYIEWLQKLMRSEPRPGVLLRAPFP", "assay": "SPR, ratio of KD to KD of WT"}, "FVII(a) variant E116A": {"target": "T5, FVII(a) variant E116A (human, UniProt P08709 61-466)", "T5 construct": "hFVII alanine variant in cell culture supernatant", "T5 sequence": "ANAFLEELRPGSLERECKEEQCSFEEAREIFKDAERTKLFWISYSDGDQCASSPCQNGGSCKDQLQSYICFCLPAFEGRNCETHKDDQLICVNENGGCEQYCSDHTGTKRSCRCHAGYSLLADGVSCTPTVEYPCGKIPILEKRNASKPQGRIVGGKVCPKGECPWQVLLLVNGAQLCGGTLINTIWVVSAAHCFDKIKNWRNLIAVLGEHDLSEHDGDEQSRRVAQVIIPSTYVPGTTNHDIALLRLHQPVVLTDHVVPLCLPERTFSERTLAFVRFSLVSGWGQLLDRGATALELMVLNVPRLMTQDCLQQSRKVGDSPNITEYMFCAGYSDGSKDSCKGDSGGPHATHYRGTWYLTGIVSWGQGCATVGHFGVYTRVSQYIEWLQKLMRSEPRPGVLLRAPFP", "assay": "SPR, ratio of KD to KD of WT"}, "FVII(a) variant H115A [2]": {"target": "T2, FVII(a) variant H115A", "assay": "SPR, ratio of KD to KD of WT"}},
  "data": [
    {"binder": "mAb0842(OA) (antibody, human IgG4 S228P, kappa, also called monovalent humanized 11F2 antibody; one-armed anti-FVII(a) antibody) heavy: QVQLQESGPGLVKPSQTLSLTCTVSGYSISSDSAWSWIRQPPGKGLEWIGYIQYSGSTNYNPSLKSRVTISRDTSKNQFSLKLSSVTAADTAVYYCARSVNYYGNSFAVGYWGQGTLVTVSSASTKGPSVFPLAPCSRSTSESTAALGCLVKDYFPEPVTVSWNSGALTSGVHTFPAVLQSSGLYSLSSVVTVPSSSLGTKTYTCNVDHKPSNTKVDKRVESKYGPPCPPCPAPEFLGGPSVFLFPPKPKDTLMISRTPEVTCVVVDVSQEDPEVQFNWYVDGVEVHNAKTKPREEQFNSTYRVVSVLTVLHQDWLNGKEYKCKVSNKGLPSSIEKTISKAKGQPREPQVYTLPPSQEEMTKNQVSLSCAVKGFYPSDIAVEWESNGQPENNYKTTPPVLDSDGSFFLVSRLTVDKSRWQEGNVFSCSVMHEALHNHYTQKSLSLSLGK light: EIVLTQSPATLSLSPGERATLSCRASQGISDYLHWYQQKPGEAPRLLIKYTSQPATGIPARFSGSGSGTDFTLTISSLEPEDFAVYYCQNGHSFPLTFGQGTKLEIKRTVAAPSVFIFPPSDEQLKSGTASVVCLLNNFYPREAKVQWKVDNALQSGNSQESVTEQDSKDSTYSLSSTLTLSKADYEKHKVYACEVTHQGLSSPVTKSFNRGEC not shown", "values": [
      {"measurement": "Kd", "setting": "FVII(a) WT", "value": 0.31, "unit": "nM"},
      {"measurement": "Kd", "setting": "FVII(a) variant H115A [1]", "value": 8.16, "unit": "nM"},
      {"measurement": "Fold diff (Variant/WT)", "setting": "FVII(a) variant V131A", "value": 17.1, "unit": "fold"},
      {"measurement": "Fold diff (Variant/WT)", "setting": "FVII(a) variant R113A", "value": 1, "unit": "fold"},
      {"measurement": "Fold diff (Variant/WT)", "setting": "FVII(a) variant E116A", "value": 1.6, "unit": "fold"},
      {"measurement": "Fold diff (Variant/WT)", "setting": "FVII(a) variant H115A [2]", "value": 26.8, "unit": "fold"}
    ]}
  ]
}
